Reference: paper PMC7552008

Tests used:
[1] = target: NS1 RBD H5N1 (Influenza A virus (H5N1; allele A)) (UniProt Q5H7J4); test: competition EMSA
[2] = target: T1, NS1 RBD H7N1 (Influenza A virus (avian H7N1; allele B)) (UniProt Q1PST0); test: competition EMSA
T1 sequence: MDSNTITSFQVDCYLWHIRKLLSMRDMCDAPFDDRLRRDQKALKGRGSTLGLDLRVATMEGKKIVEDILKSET

[3] = target: NS1 RBD H5N1 (Influenza A virus (H5N1; allele A)) (UniProt Q5H7J4); test: EMSA
[4] = system: NS1 RBD pdmH1N1 (Influenza A virus (pandemic H1N1)); test: EMSA
[5] = target: NS1 RBD H3N2 (Influenza A virus (H3N2)) (UniProt I6T1Z2); test: EMSA
[6] = target: wild type H7N1 NS1 RBD (RNA-binding domain of influenza A virus non-structural protein NS1, residues 1-73) (influenza A virus (avian H7N1)); test: crystal structure

Substance | IC50 [1] [nM] | IC50 [2] [nM] | other results
AGACAGCAUUAUGCUGUCUUU / AGACAGCAUUAUGCUGUCUUU [ZKO] | 90 | – | –
CGCCUGUGUAGAGGUUACAGAGAUGUAACCUCACCACAGGCG [shDM05-GAGA] | 100 | – | –
GGUAACAACUCGUCAUAGGUCACUUGAUUGAAGUAUGACGGGCUGUUACC [DM03-midi] | 1.8 | 2.8 | –
GGUAACCACAUGAGUUACAGCAAAAGACCUGUGUAACUCAUGCUGUUACC [DM01-midi] | 2.2 | 2.7 | –
GGUAACUGUAGAGGAUGGAGAGAUCCAUCCUCUACAGUUACC [shDM06-GAGA] | 1.1 | 0.85 | –
GGUAACUGUAGAGGUUACAGAGAUGUAACCUCACCAGUUACC [shDM03-GAGA] | 1.2 | 0.64 | –
GGUAACUGUAGAGGUUACAGAGAUGUAACCUCUACAGUUACC [shDM02-GAGA] | 0.41 | 0.24 | –
GGUAACUGUUACAGUUACC / GGUAACUGUUACAGUUACC [AWFC01] | 1 | – | Kd [3]: 0.98 nM; Kd [4]: 2.05 nM; Kd [5]: 3.7 nM
wild type H7N1 NS1 RBD (RNA-binding domain of influenza A virus non-structural protein NS1, residues 1-73) (domain or fragment) | – | – | stoichiometry N [6]: 2
